The data set has as its target p53(1-360) (Homo sapiens, UniProt P04637 P04637:1-360). The experiment in a line: EMSA; 0.10 nM DNA, 12 uM p53(1-360), PBS, 25 C, 2 ug poly(dI-dC) competitor, 1 h; 6% gel in TBM. The note with it: tags: HiCaM tag (His6-calmodulin) removed by thrombin; expressed in E. coli BL21(DE3)Star; chain copies: 4 inferred; label: 32P. The method, then: Functional Assays of purified, untagged constructs—The excitation and emission spectra (excited at 488 nm) of eGFP were recorded from 300 to 700 nm at 25° C. in a Fluoromax-3 Spectrofluorometer. For p53(1-360), a ³²P-labelled restriction fragment harbouring an icosamer recognition sequence (5′-[…]-3′ (SEQ ID NO:6)) (0.10 nM) was incubated alone, with 50 ng/μL BSA or 12 μM p53(1-360) in PBS at 25° C. with 2 μg poly(dI-dC)˜poly(dl-dC) for 1 hour before separation in a 6% polyacrylamide gel in TBM buffer at 25 V/cm. The gel was then exposed to a phosphor screen for 1 hour and imaged in a Typhoon® Phosphorimager (GE Healthcare). Human p53(1-360) (7 μM) was also crosslinked with 0.125% glutaraldehyde at 25° C. for 12 min. and separated on SDS-PAGE, followed by Coomassie Blue staining (Poon et al. 2007).
(In general: Mobility shift assays separate free from complexed probe on a gel.)

p53(1-360), sequence (P04637 1-360, one chain of several): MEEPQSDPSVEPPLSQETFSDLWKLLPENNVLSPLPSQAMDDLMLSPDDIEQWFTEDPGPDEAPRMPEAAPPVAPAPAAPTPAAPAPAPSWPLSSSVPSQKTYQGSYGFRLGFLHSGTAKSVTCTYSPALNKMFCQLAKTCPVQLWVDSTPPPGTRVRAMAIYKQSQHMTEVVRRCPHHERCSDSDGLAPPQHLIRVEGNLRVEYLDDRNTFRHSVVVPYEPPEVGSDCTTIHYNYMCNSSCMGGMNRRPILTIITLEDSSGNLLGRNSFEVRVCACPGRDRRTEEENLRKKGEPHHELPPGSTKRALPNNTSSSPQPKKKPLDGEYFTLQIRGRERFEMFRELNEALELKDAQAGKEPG

B1: p53 icosamer recognition sequence (dsDNA)
DNA 1: AGGCATGTCTAGGCATGTCT
DNA 2: AGACATGCCTAGACATGCCT
Regarding B1, the binding result was “binds”.

The values are drawn from patent publication US20100297734, “Fusion Tag Comprising an Affinity Tag and an EF-Hand Motif Containing Polypeptide and Methods of Use Thereof” (University Health Network, published 2010).
